2 substances from patent US20090112150A1, “CAVITATION ENHANCED TREATMENT THROUGH LOCAL DELIVERY” (IMARX THERAPEUTICS, INC., priority 2004, published 2009) can be followed below.

This series in a line: Loading of thrombolytic drugs into microbubbles, particle sizing/counting on Accusizer 770. The class given is physicochemical. The following applies: MX115 microbubbles. As to the method:
MX115 was activated in the vial. Different concentrations of thrombolytic drugs, Streptokinase (Sigma, Milwaukee, Wis.) and t-PA (Genentech, South San Francisco, Calif.), were added to the vial and incubated with the microbubbles for 5 minutes before analyzing the mixtures using a Model 770 Accusizer (Particle Sizing Systems, Santa Barbara, Calif.). […] As much as 5 mg of the drug could be loaded into the MRX 115 microbubbles.

The mark [1] stands for this setting: protein loading in microbubbles 0.010 mg, 5 minutes incubation.
Setting [2] is: protein loading in microbubbles 0.1 mg, 5 minutes incubation.
The mark [3] stands for this setting: protein loading in microbubbles 1 mg, 5 minutes incubation.
The mark [4] stands for this setting: protein loading in microbubbles 5 mg, 5 minutes incubation.

For the substance Tissue Plasminogen Activator [tPA], under “After 24 hrs”, the “Number of particles/mL” value was 1.3 × 10^9 particles/mL, the Number wt mean is on record as 2.20 μ and the Volume wt mean turned out to be 24.4 μ. Further, under setting [1], the “Number of particles/mL” value is reported as 1.1 × 10^9 particles/mL, the Number wt mean is on record as 2.27 μ and the Volume wt mean is on record as 23.5 μ.

On to Streptokinase, for which, under setting [2], the “Number of particles/mL” value was 1.1 × 10^9 particles/mL, the Number wt mean came to 1.79 μ and the Volume wt mean worked out at 13.6 μ. Further, under setting [3], the “Number of particles/mL” value is on record as 1.1 × 10^9 particles/mL, the Number wt mean was 1.87 μ and the Volume wt mean worked out at 17.1 μ. In addition, under setting [4], the “Number of particles/mL” value is 0.5 × 10^9 particles/mL, the Number wt mean is 2.44 μ and the Volume wt mean is on record as 52.9 μ.
